B1: Zinc finger homeobox protein 4, residues 2183 to 2238; numbered along this chain, Q86UP3 (parent)
chain: SSRTRFTDYQLRVLQDFFDTNAYPKDDEIEQLSTVLNLPTRVIVVWFQNARQKARK

Variants of: B1
Experiment: abundance fitness (aPCA) (normalised: wild type 0, dead -1); higher = more abundant; growth selection in yeast, the domain comes from the species named
Details: Homo sapiens

Abundance fitness of substitutions, site by site:
K25: C -0.111 | F -0.467
Q31: M -0.212 | K 0.037 | W -0.184 | V -0.206 | C -0.221 | S -0.042 | L -0.278 | R -0.023 | A -0.188 | I -0.316 | F -0.028 | H -0.263 | N -0.444 | G -0.098 | P -0.343 | Y -0.085 | T -0.252
A22: I -0.065 | L -0.219 | N -0.077 | E -0.016 | G -0.186 | C 0.033 | K -0.116 | D 0.002 | Q 0.005 | M 0.153 | V -0.086 | S 0.074 | F -0.228 | Y -0.309 | R 0.005 | P 0.133 | W -0.169
V13: W -0.377 | D 0.079 | A -0.012 | H 0.203 | M 0.44 | P -1.02 | Q 0.057 | I -0.001 | T 0.013 | Y 0.092 | R 0.079 | S -0.068 | N -0.064 | G 0.047 | F -0.056 | C -0.181
L14: P -0.931 | A -0.793 | I -0.184 | Q -1.02 | R -0.911 | C -0.181 | E -1.07 | W -0.895 | M 0.049 | F -0.433 | N -1.15 | V -0.206 | G -0.876 | Y -1.08 | T -0.93 | S -0.731
E30: Y -0.366 | C -0.18 | Q 0.175 | G 0.059 | W -0.366 | D 0.08 | F -0.132 | M 0.201 | I -0.221 | R 0.031 | P -0.463 | T -0.046 | K -0.154 | L -0.057 | V -0.119 | N -0.166 | H 0.008
I29: S -0.702 | E -0.614 | Y 0.004 | T -0.256 | R -0.692 | K -0.576 | H -0.633 | V -0.174 | W -0.352 | P -1.23 | M -0.03 | D -0.876 | L -0.023 | F -0.152 | G -0.88 | Q -0.447 | A -0.266 | C -0.015 | N -0.809
Q15: V -0.095 | I -0.141 | D -0.072 | G -0.102 | P -0.708 | N -0.158 | F -0.186 | R -0.107 | S -0.004 | Y -0.27 | T -0.069 | M 0.058 | E -0.139 | L -0.036 | W -0.333 | A -0.05
Y23: A -0.097 | S 0.032 | E 0.361 | P -0.345 | N -0.369 | V -0.039 | Q -0.173 | C -0.228 | T -0.093 | G -0.169 | L 0.008 | R 0.047 | W -0.061 | I -0.219 | D 0.313 | F -0.084 | M 0.031
F18: K -0.194 | I -0.16 | T -0.449 | A -0.117 | S -0.225 | P -0.891 | D -0.887 | E -0.486 | G -0.711 | W -0.027 | R -0.222 | Y 0.101 | Q -0.329 | N -0.459 | H -0.139 | C -0.139
D27: S -0.009 | M -0.012 | L -0.004 | V -0.375 | K -0.029 | T -0.256 | G 0.162 | H 0.048 | Q 0.08 | R -0.038 | N 0.001 | A -0.378 | F 0.019 | Y -0.171
